This note sets out measurements from paper PMC4156411.

Holding throughout (assay): ELASA
Holding throughout (details): ELASA: VLPs 3 ug/ml coated, blocked with 5% skim milk in PBST plus unrelated DNA, 1 uM biotinylated aptamer (10 nM-2 uM for Kd), 1 h at RT, PBST washes

For data set [1], the system named is GI.4 VLP, major capsid protein (Human norovirus GI.4).
In data set [2] the test system is GI.6 VLP, major capsid protein (Human norovirus GI.6).
The test system of data set [3] is GI.7 VLP, major capsid protein (Human norovirus GI.7).
In data set [4] the test system is GI.8 VLP, major capsid protein (Human norovirus GI.8).
Data set [5] relates to GII.1 VLP, major capsid protein (Human norovirus GII.1).
The test system of data set [6] is GII.12 VLP, major capsid protein (Human norovirus GII.12).
Data set [7] relates to GII.17 VLP, major capsid protein (Human norovirus GII.17).
The target of data set [8] is T1, GII.2 (SMV) VLP, major capsid protein (Human norovirus GII.2 (Snow Mountain virus)) (UniProt K7X601).
T1 sequence: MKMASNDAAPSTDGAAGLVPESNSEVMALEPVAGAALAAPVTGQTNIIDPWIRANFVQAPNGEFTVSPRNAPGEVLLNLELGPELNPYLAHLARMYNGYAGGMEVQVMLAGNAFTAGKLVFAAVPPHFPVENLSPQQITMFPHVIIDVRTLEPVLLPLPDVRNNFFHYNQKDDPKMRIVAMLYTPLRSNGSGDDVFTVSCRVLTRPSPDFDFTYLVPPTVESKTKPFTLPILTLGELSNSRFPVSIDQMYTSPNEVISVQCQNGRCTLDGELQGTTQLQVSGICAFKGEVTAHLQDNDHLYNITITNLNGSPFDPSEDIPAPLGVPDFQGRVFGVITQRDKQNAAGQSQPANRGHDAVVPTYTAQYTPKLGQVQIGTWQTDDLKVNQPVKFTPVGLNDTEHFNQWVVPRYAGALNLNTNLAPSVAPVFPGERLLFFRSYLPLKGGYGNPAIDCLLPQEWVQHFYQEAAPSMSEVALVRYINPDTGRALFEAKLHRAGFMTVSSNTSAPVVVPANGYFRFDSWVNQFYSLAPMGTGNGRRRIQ

Data set [9] concerns GII.3 VLP, major capsid protein (Human norovirus GII.3).
Data set [10] has as its system GII.4 (Grimsby) VLP, major capsid protein (Human norovirus GII.4 (Grimsby virus)).
Data set [11] concerns GII.4 (Houston) VLP, major capsid protein (Human norovirus GII.4 (Houston)).
In data set [12] the test system is GII.6 VLP, major capsid protein (Human norovirus GII.6).
Data set [13] has as its system GII.7 VLP, major capsid protein (Human norovirus GII.7).

As to “AGTATACGTATTACCTGCAGCCACCAGTGTGTTGAGGTTTGAGCACACTGATAGAGTGTCACGATATCTCGGAGATCTTGC [SMV-19]”, the binding signal in [1] came to 1.7 T/N ratio; in [2], 3.7 T/N ratio; in data set [3], 10.3 T/N ratio; in data set [4] it was 1.7 T/N ratio; in data set [5] it was 7.1 T/N ratio; in data set [6], 1.5 T/N ratio. For the same sequence, the binding signal is 3 T/N ratio in data set [7]; 12.9 T/N ratio in data set [8]; 1.7 T/N ratio in data set [9]; 9.6 T/N ratio in data set [10]; 12.5 T/N ratio in data set [11]; 1.8 T/N ratio in data set [12]. Moreover, the binding signal in data set [13] worked out at 4 T/N ratio. Also, the Kd (as a rule, a measure of binding affinity in units of concentration) in [8] was 0.191 µM.

For “AGTATACGTATTACCTGCAGCCCATGTTTTGTAGGTGTAATAGGTCATGTTAGGGTTTCTGCGATATCTCGGAGATCTTGC [SMV-21]”, the binding signal in data set [1] turned out to be 4.3 T/N ratio; in data set [2], 3.8 T/N ratio; in data set [3], 8.1 T/N ratio; in data set [4], 4.6 T/N ratio; in data set [5], 8.6 T/N ratio; in data set [6] it was 6.6 T/N ratio. Moreover, the binding signal came out at 12.2 T/N ratio in [7]; 18.1 T/N ratio in data set [8]; 11.8 T/N ratio in data set [9]; 6.4 T/N ratio in data set [10]; 11.3 T/N ratio in data set [11]; 3 T/N ratio in [12]. The binding signal in [13] was found to be 13.5 T/N ratio. In addition, in data set [8], the dissociation constant (Kd) was determined as 0.101 µM.

Consider “AGTATACGTATTACCTGCAGCTGACCGAGTGTCTGGTCATTTTCGATGTCTGTTGTTAGGCCGATATCTCGGAGATCTTGC [SMV-26]”, for which the binding signal in [1] came to 1.1 T/N ratio; in data set [2], 1.5 T/N ratio; in data set [3] it was 1.8 T/N ratio; in data set [4], 1.2 T/N ratio; in [5], 2.1 T/N ratio; in data set [6], 2.4 T/N ratio. The binding signal in [7] was 1.3 T/N ratio; in [8], 4.1 T/N ratio; in data set [9], 2.4 T/N ratio; in [10], 3.2 T/N ratio; in [11], 2.8 T/N ratio; in data set [12], 2.8 T/N ratio. For the same sequence, in data set [13], the binding signal amounted to 2.8 T/N ratio. The dissociation constant (Kd) in data set [8] came out at 0.281 µM.

“AGTATACGTATTACCTGCAGCCATCTGTGTGAAGACTATATGGCGCTCACATATTTCTTTCCGATATCTCGGAGATCTTGC [SMV-25]”: the binding signal amounted to 5.6 T/N ratio in [1]; 2.4 T/N ratio in data set [2]; 3.5 T/N ratio in data set [3]; 6.2 T/N ratio in data set [4]; 9.4 T/N ratio in data set [5]; 1.9 T/N ratio in [6]. Further, the binding signal is 2 T/N ratio in [7]; 12.4 T/N ratio in data set [8]; 5.4 T/N ratio in [9]; 10.4 T/N ratio in [10]; 11 T/N ratio in data set [11]; 7.3 T/N ratio in [12]. For the same sequence, the binding signal in data set [13] amounted to 9.1 T/N ratio. Besides, the Kd in data set [8] is 0.232 µM.
